Experimental findings from patent US20240294593A1 (Genentech, published 2024) are described below.

Usually koff stands for a measure of how fast the partners let go of each other. What is called kon is the rate constant with which the complex forms. High values mean fast association, low ones slow association.

The chains are these.
B1: H1.200_L1.1 (XENP32816) (antibody, human IgG1, kappa, V domains shown)
VH: EVQLVESGGGLVQPGGSLRLSCAASGFTFSSFGMHWVRQAPGKGLEWVSYISSGSSIIYYADSVKGRFTISRDNAKNSLYLQMNSLRAEDTAVYYCARGHRVVFSPDYWGQGTLVTVSS
VL: DIVMTQSPDSLAVSLGERATINCKSSQSLLHSGNQKNYLTWYQQKPGQPPKLLIYWASTRESGVPDRFTGSGSGTDFTLTISSLQAEDVAVYYCQNDYSYPFTFGSGTKLEIKR
notes: VH substitution G108H/L110V/W112F (Xencor #); G96H/L98V/W100F (Kabat); also called mAb C[PD1]_H1.200_L1.1_IgG1_PVA_/S267K
B2: H1.208_L1.1 (XENP32824) (antibody, human IgG1, kappa, V domains shown)
VH: B1 VH with H100G, V102S
VL: B1 VL
notes: VH substitution L110S/W112F (Xencor #); L98S/SW100F (Kabat); also called mAb C[PD1]_H1.208_L1.1_IgG1_PVA_/S267K
B3: H1.212_L1.1 (XENP32828) (antibody, human IgG1, kappa, V domains shown)
VH: B1 VH with H100G, R101T, V102K
VL: B1 VL
notes: VH substitution R109T/L110K/W112F (Xencor #); R97T/L98K/W100F (Kabat); also called mAb C[PD1]_H1.212_L1.1_IgG1_PVA_/S267K
B4: H1.204_L1.1 (XENP32820) (antibody, human IgG1, kappa, V domains shown)
VH: B1 VH with H100G, R101Q, V102Q, S105A
VL: B1 VL
notes: VH substitution R109Q/L110Q/W112F/S113A (Xencor #); R97Q/L98Q/W100F/S100aA (Kabat); also called mAb C[PD1]_H1.204_L1.1_IgG1_PVA_/S267K
B5: H1.202_L1.1 (XENP32818) (antibody, human IgG1, kappa, V domains shown)
VH: B1 VH with H100G, V102L, V103Q, S105T
VL: B1 VL
notes: VH substitution V111Q/W112F/S113T (Xencor #); V99Q/W100F/S100aT (Kabat); also called mAb C[PD1]_H1.202_L1.1_IgG1_PVA_/S267K
B6: H1.211_L1.1 (XENP32827) (antibody, human IgG1, kappa, V domains shown)
VH: B1 VH with H100G, V102L, S105A
VL: B1 VL
notes: VH substitution W112F/S113A (Xencor #); W100F/S100aA (Kabat); also called mAb C[PD1]_H1.211_L1.1_IgG1_PVA_/S267K
B7: H1.207_L1.1 (XENP32823) (antibody, human IgG1, kappa, V domains shown)
VH: B1 VH with H100G, V102L, S105T
VL: B1 VL
notes: VH substitution W112F/S113T (Xencor #); W100F/S100aT (Kabat); also called mAb C[PD1]_H1.207_L1.1_IgG1_PVA_/S267K
B8: H1.205_L1.1 (XENP32821) (antibody, human IgG1, kappa, V domains shown)
VH: B1 VH with H100G, R101K, V102L, S105A
VL: B1 VL
notes: VH substitution R109K/W112F/S113A (Xencor #); R97K/W100F/S100aA (Kabat); also called mAb C[PD1]_H1.205_L1.1_IgG1_PVA_/S267K
B9: H1.210_L1.1 (XENP32826) (antibody, human IgG1, kappa, V domains shown)
VH: B1 VH with H100G, R101W, V102H
VL: B1 VL
notes: VH substitution R109W/L110H/W112F (Xencor #); R97W/L98H/W100F (Kabat); also called mAb C[PD1]_H1.210_L1.1_IgG1_PVA_/S267K
B10: H1.206_L1.1 (XENP32822) (antibody, human IgG1, kappa, V domains shown)
VH: B1 VH with H100G, V102L, F104L
VL: B1 VL
notes: VH substitution W112L (Xencor #) but W100F in the Kabat column: the two columns disagree; also called mAb C[PD1]_H1.206_L1.1_IgG1_PVA_/S267K
B11: H1.209_L1.1 (XENP32825) (antibody, human IgG1, kappa, V domains shown)
VH: B1 VH with H100G, V102F
VL: B1 VL
notes: VH substitution L110F/W112F (Xencor #); L98F/W100F (Kabat); also called mAb C[PD1]_H1.209_L1.1_IgG1_PVA_/S267K
B12: H1.178_L1.140 (XENP32424) (antibody, V domains shown)
VH: B1 VH with F32L, S53G, H100G, R101F, V102L
VL: B1 VL with K36Y, S99T
notes: VH-F34L/S55G/R109F/W112F, VL-N31H/K36Y/S99T (Xencor #); Kabat positions VH-32/52A/97/100, VL-27D/30/93; also called mAb C[PD-1]_H1.178_L1.140; copies: 2 + 2
B13: H1.188_L1.140 (XENP32434) (antibody, V domains shown)
VH: B1 VH with F32L, S53G, H100G, R101T, V102L
VL: B1 VL with K36Y, S99T
notes: VH-F34L/S55G/R109T/W112F, VL-N31H/K36Y/S99T (Xencor #); Kabat positions VH-32/52A/97/100, VL-27D/30/93; also called mAb C[PD-1]_H1.188_L1.140
B14: H1.182_L1.140 (XENP32428) (antibody, V domains shown)
VH: B1 VH with F32L, S53G, H100G, R101L, V102L
VL: B1 VL with K36Y, S99T
notes: VH-F34L/S55G/R109L/W112F, VL-N31H/K36Y/S99T (Xencor #); Kabat positions VH-32/52A/97/100, VL-27D/30/93; also called mAb C[PD-1]_H1.182_L1.140; copies: 2 + 2
B15: H1.184_L1.140 (XENP32430) (antibody, V domains shown)
VH: B1 VH with F32L, S53G, H100G, R101D, V102L
VL: B1 VL with K36Y, S99T
notes: VH-F34L/S55G/R109D/W112F, VL-N31H/K36Y/S99T (Xencor #); Kabat positions VH-32/52A/97/100, VL-27D/30/93; also called mAb C[PD-1]_H1.184_L1.140; copies: 2 + 2

Changes are numbered by the printed parent chain. Names and notes keep the numbering of the source.

T1 sequence (Q15116 25-167 limits assumed): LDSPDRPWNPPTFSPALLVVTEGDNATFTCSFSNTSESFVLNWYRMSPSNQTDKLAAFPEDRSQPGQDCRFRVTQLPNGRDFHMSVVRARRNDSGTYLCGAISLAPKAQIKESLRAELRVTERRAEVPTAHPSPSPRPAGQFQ

One test concerns the target T1, human PD-1-His (human, UniProt Q15116 25-167, limits assumed).
T1 construct: Antigen of the Octet assays; not shown: His tag
Put plainly: Octet (BLI), AHC biosensors capture the bivalent mAb, dipped into multiple concentrations of PD-1; KDapp per legend. A general note: Biolayer interferometry detects binding as a change in optical thickness at a sensor tip.
In turn, B1 came in with a Kd of 20 nM.

B2 gave a Kd of 65.5 nM.

B3 yielded a Kd of 30.8 nM.

The molecule B4 displayed a Kd of 26.2 nM.

Regarding B5, the Kd stood at 23 nM.

For the molecule B6, the Kd amounted to 19 nM.

Take B7: the Kd was determined as 20.5 nM.

For the molecule B8, the Kd stood at 26.8 nM.

In the case of B9, the Kd was determined as 15.9 nM.

Molecule B10 yielded a Kd of 34.2 nM.

Turning to B11, the Kd was found to be 28.2 nM.

In another test the target is T1, human PD-1-His. The experiment in a line: Octet (BLI), bivalent IgG1 mAb; legend calls the constant apparent (KDapp).
As for B12, the Kd was determined as 0.986 nM.

For B13, the Kd stood at 0.981 nM.

Turning to B14, the Kd worked out at 0.943 nM.

As to B15, the Kd amounted to 0.798 nM.

Another test deals with T1, human PD-1-His. Put plainly: Octet (BLI), AHC capture of the bivalent mAb, PD-1 in solution.
Molecule B1 registered a koff of 0.00672 s⁻¹ and an association rate constant (kon) of 336000 M⁻¹ s⁻¹.

The molecule B2 registered an off-rate constant (koff) of 0.00509 s⁻¹ and a kon of 77700 M⁻¹ s⁻¹.

Regarding B3, the koff stood at 0.00469 s⁻¹ and the kon was 152000 M⁻¹ s⁻¹.

B4 had a koff of 0.00404 s⁻¹ and an association rate constant (kon) of 154000 M⁻¹ s⁻¹.

Molecule B5 returned a koff of 0.00239 s⁻¹ and a kon of 104000 M⁻¹ s⁻¹.

B6 showed a koff of 0.00252 s⁻¹ and a kon of 133000 M⁻¹ s⁻¹.

Molecule B7 yielded a koff of 0.00151 s⁻¹ and a kon of 73600 M⁻¹ s⁻¹.

Consider B8, for which the koff stood at 0.00296 s⁻¹ and the kon is 111000 M⁻¹ s⁻¹.

B9 came in with a koff of 0.00244 s⁻¹ and a kon of 154000 M⁻¹ s⁻¹.

In turn, B10 returned a koff of 0.00505 s⁻¹ and a kon of 148000 M⁻¹ s⁻¹.

Consider B11, for which the off-rate constant (koff) was 0.00489 s⁻¹ and the kon was 173000 M⁻¹ s⁻¹.

In a further test the target is T1, human PD-1-His. Put plainly: Octet (BLI), bivalent IgG1 mAb.
Take B12: the koff is 0.000182 s⁻¹ and the on-rate (kon) stood at 184000 M⁻¹ s⁻¹.

Take B13: the koff amounted to 0.000177 s⁻¹ and the kon worked out at 181000 M⁻¹ s⁻¹.

Regarding B14, the koff is 0.000176 s⁻¹ and the kon came out at 187000 M⁻¹ s⁻¹.

For B15, the koff was found to be 0.000188 s⁻¹ and the kon is 236000 M⁻¹ s⁻¹.
